Assay results reported in publication PMC3123277, “Engineering Klebsiella sp. 601 multicopper oxidase enhances the catalytic efficiency towards phenolic substrates” (BMC Biochemistry, 2011).

What was measured:
[1] = molecular target: Klebsiella sp. 601 MCO (multicopper oxidase) (Klebsiella sp. 601, UniProt B0FMT2, R361G/M362G/L367G/M368G/E369P/M376K/M379P); conditions: read-out: α351-380M; pH 5.0, 50 mM acetate, 37°C, 0.2 mM CuSO4
From the text: (§1) spectrophotometric oxidation assay, Lineweaver-Burk on Klebsiella sp. 601 MCO (multicopper oxidase)

[2] = molecular target: Klebsiella sp. 601 MCO (multicopper oxidase) (Klebsiella sp. 601, UniProt B0FMT2, E106F); conditions: read-out: E106F; pH 5.0, 50 mM acetate, 37°C, 0.2 mM CuSO4
From the text: as §1

[3] = molecular target: T1, Klebsiella sp. 601 MCO (multicopper oxidase) (Klebsiella sp. 601, UniProt B0FMT2); experiment: spectrophotometric oxidation assay, Lineweaver-Burk; format: biochemical; conditions: pH 5.0, 50 mM acetate, 37°C, 0.2 mM CuSO4; read-out: Wild-type
T1 sequence (B0FMT2 29-536): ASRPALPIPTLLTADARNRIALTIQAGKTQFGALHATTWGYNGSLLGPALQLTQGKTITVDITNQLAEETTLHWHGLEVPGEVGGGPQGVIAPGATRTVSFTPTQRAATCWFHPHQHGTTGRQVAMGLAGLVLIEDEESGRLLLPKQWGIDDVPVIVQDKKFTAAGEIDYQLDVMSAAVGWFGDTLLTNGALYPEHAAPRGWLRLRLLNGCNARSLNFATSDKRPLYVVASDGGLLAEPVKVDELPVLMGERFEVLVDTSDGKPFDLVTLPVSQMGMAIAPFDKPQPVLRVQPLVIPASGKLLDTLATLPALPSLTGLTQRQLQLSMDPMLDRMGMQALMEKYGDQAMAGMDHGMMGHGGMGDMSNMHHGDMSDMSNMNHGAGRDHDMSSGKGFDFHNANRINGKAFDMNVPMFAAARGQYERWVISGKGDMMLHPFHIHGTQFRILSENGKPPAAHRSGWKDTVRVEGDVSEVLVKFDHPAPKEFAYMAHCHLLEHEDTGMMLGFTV
From the text: as §1

[4] = tested on: CCn1c(=NN=c2sc3cc(S(=O)(=O)O)ccc3n2CC)sc2cc(S(=O)(=O)O)ccc21; experiment: purified protein; conditions: pH 3.6, 50 mM acetic acid-sodium acetate, 37°C, 0.2 mM CuSO4
[5] = substrate: COc1cc(C=NN=Cc2cc(OC)c(O)c(OC)c2)cc(OC)c1O; experiment: spectrophotometric oxidation assay, Lineweaver-Burk; format: biochemical, Klebsiella sp. 601; conditions: pH 6.8, 50 mM phosphate, 37°C, 0.2 mM CuSO4, pH 6.8
From the text: as §1

[6] = substrate: CCn1c(=NN=c2sc3cc(S(=O)(=O)O)ccc3n2CC)sc2cc(S(=O)(=O)O)ccc21; experiment: as above; format: biochemical, Klebsiella sp. 601; conditions: pH 3.0, 50 mM acetic acid-sodium acetate, 37°C, 0.2 mM CuSO4, pH 3.0
From the text: as §1

COc1cccc(OC)c1O [DMP]
Km [1]: 639 ± 17 µM | Km [2]: 1180 µM | Km [3]: 2850 µM

Klebsiella sp. 601 MCO (multicopper oxidase) (Klebsiella sp. 601; E106F)
Km [4]: 159 ± 1.0 µM | kcat/Km [4]: 2.05e+08 M⁻¹ s⁻¹

Klebsiella sp. 601 MCO (multicopper oxidase) (Klebsiella sp. 601; E369P/L367G/M362G/M368G/M376K/M379P/R361G)
Km [4]: 284 ± 6.2 µM

B1: Klebsiella sp. 601 MCO (multicopper oxidase) (Klebsiella sp. 601) (protein)
chain: ASRPALPIPTLLTADARNRIALTIQAGKTQFGALHATTWGYNGSLLGPALQLTQGKTITVDITNQLAEETTLHWHGLEVPGEVGGGPQGVIAPGATRTVSFTPTQRAATCWFHPHQHGTTGRQVAMGLAGLVLIEDEESGRLLLPKQWGIDDVPVIVQDKKFTAAGEIDYQLDVMSAAVGWFGDTLLTNGALYPEHAAPRGWLRLRLLNGCNARSLNFATSDKRPLYVVASDGGLLAEPVKVDELPVLMGERFEVLVDTSDGKPFDLVTLPVSQMGMAIAPFDKPQPVLRVQPLVIPASGKLLDTLATLPALPSLTGLTQRQLQLSMDPMLDRMGMQALMEKYGDQAMAGMDHGMMGHGGMGDMSNMHHGDMSDMSNMNHGAGRDHDMSSGKGFDFHNANRINGKAFDMNVPMFAAARGQYERWVISGKGDMMLHPFHIHGTQFRILSENGKPPAAHRSGWKDTVRVEGDVSEVLVKFDHPAPKEFAYMAHCHLLEHEDTGMMLGFTV
Km [5]: 11.67 ± 0.2 µM | kcat [5]: 10.8 ± 0.1 s⁻¹ | kcat/Km [5]: 930000 M⁻¹ s⁻¹ | Km [6]: 539 ± 5.0 µM | kcat/Km [6]: 1.27e+08 M⁻¹ s⁻¹
